This data set is described as follows: soluble on expression in E. coli; label from the status in PepcDB or PDB records.
As to “MPRLALRQYNFYYRVNGEKAEELLKEYGEDGDFLLRYSESNPQNFSISVRVAEDKILHIKVTKYESDMLSIFEDERTTPNQFGSITELAEFYMEFPEKLREKNGLFLELKKPVYVPYHLEACAEEQRRTQLYRWWHGNLPASSANKLLQTEKNGTYLLRASQHIPGALVISAKTEGQVVHLTIYQDPSTGRFNIDGDRTKFQSAWLLIDSYSKNPIVEKGEASRVLYLEEPLFNTFIEADLFVDRFEIIRRPINPRESMEKTGISEEFDRLSQEALPAEQYLSKREGRRPVNAEKNRYKNIVPFDHTRVILTDRPNTPGSDYINASYVRFENSQRTKNVTFACEKSFIATQGCLETTISDFWSMVWQENSRVIVMPTMENERKEKCARYWPAEVNKPEVHGDISLTCTIERKVQRAVSDEVKAELEQEKTNRIAKGLVPEAELNGDGISYILRTLVMKKGKDTREIRQLQYLTWPDHGCPLHPYAVLNFLEDVDREYDYFNAQPIAASLPQGPIVVHCSAGIGRTGTVLVLDALLNQVKKVGLLCPMDVYKMVKYVRTYRSGLVQTEQQYQFLYKALAFYLKNNNPYPVKSFIDGDTDAFDFPRRLRPTPNASRPSSARQVTSSRPSSSASSRTSHSRPRTGPQAEPIFERSTSSTSSSSTLLKSTKK”, the “soluble on expression in E. coli” value is listed as “not soluble”.

Consider “MPRVDHGSPQAGPPAPCVGILLAGGQGRRFAAASGGQDKLLARLADGTAVAVRAAAALREATDAVVAVVRPESAVLAALLRGQGCHVLESEQAREGMGASLAAAARFLLAGQVPDMPERADVCLVALADMPWVRRDTLSAVRAAACADGITVPVHQGRRGHPVAFGRSLWGELAALRGDVGARELLRRHRVAAVEVDDPGVAADVDTPGDLAGDRALEHHHHHH”, for which the “soluble on expression in E. coli” value was “not soluble”. For “MPRYPFRRFGFGALRRLLYLWVRSETINQSAFTLKIDRSKPVLYVLQQPSVSDLAVVDTECRKAGLPRPVMPVAVGDAIEPAAFFYLTPEPDWLGRQDKRGASPTLVRMLAAVGQNGLDDAQIIPVSVFWGQSPDSESSPWKLLFADNWAVTGRLRKLARILILGRKTRVQFSAPIHLRELVEQGKGHERTLRMVNRILRVHFRNLKTAVIGPDLSHRRNLVKGLLRAPLVRQAISEECESERISQEKAEGIALRYANEIASDFSYPVIRFLEVILSWFWNKLYEGVKVNHIERVQDVAQGNEIVYVPCHRSHIDYLLLSYLLFRNGLTPPHIAAGINLNMPVIGSILRRGGAFFMRRSFKGNQLYTAVFNEYLHTLFSRGFSTEYFVEGGRSRTGRMLHPRTGMLAITLRSFLRDSRRPIVFVPVYIGYERVLEGRTYLGELRGATKKKESIFDLFKVVGALKQRFGQVWVNFGEPIHLDQFLDRHQPDWQDQDLGPEYRPDWLPQTTNLLAKDVARHLNDAAAINPVNLVALALLSTSRQALDESALARILDLYLALLRKVPYSPSATLPDGDGQALIEYVKSMNLLAEQKDALGRILYLDEQNAVLATYYRNNVLHVFALPALIASFFQSNSRISREQLLRFARALYPYLQAELFIRWSLDELDAVIDQWLAALVEQDLLRQENDTFIRPAPSSRQYVLLILLARSVTQTLQRFYMAIALLLNAGQNALTAEELENLCTVMAQRLSILHGLNAPEFFDKSLFRHFIQTLLDLRVLRKDEAGKLSYHELLGELAEGAAKRVLPAEIRLSIRQVALERPAEEAAAESN” the value was “not soluble”.

Consider “MPSCDPGPAPACLPTKTFRSYLPRCHRTYSCVHCRAHLAKHDELISKSFQGSHGRAYLFNSVVNVGCGPAEQRLLLTGLHSVADIFCESCKTTLGWKYEQAFETSQKYKEGKYIIEMSHMVKDNGWD”, for which the “soluble on expression in E. coli” value was “soluble”.

For “MPSDSTSNIDTTQRQSADLMAEGFGAGVNAPFLVIVDTHEVNADSTALQPLIEAQEPEEGEFDREQAARFATYMYVTQTYNSNIDVKNAQIISVNDDFTAAQILVTPYTGPADKETPELMHVLRAQEAQIEDVTGTELGTTGFTAVQLDITEQLEDAMPVYLEHHHHHH”, the “soluble on expression in E. coli” value is reported as “not soluble”.

Take “MPSPSPKGLPVKQYAVQSQLPVYEWPDVGSGEYDVGVVASFGRLLNEALILKFPYGILNVHPSCLPRWRGPAPVIHTVLHGDTVTGVTIMQIRPKRFDVGPILKQETVPVPPKSTAKELEAVLSRLGANMLISVLKNLPESLSNGRQQPMEGATYAPKISAGTSCIKWEEQTSEQIFRLYRAIGNIIPLQTLWMANTIKLLDLVEVNSSVLADPKLTGQALIPGSVIYHKQSQILLVYCKDGWIGVRSVMLKKSLTATDFYNGYLHPWYQKNSQAQPSQCRFQTLRLPTKKKQKKTVAMQQCIE”: the “soluble on expression in E. coli” value is reported as “soluble”. Take “MPSVESFELDHNAVVAPYVRHCGVHKVGTDGVVNKFDIRFCQPNKQAMKPDTIHTLEHLLAFTIRSHAEKYDHFDIIDISPMGCQTGYYLVVSGETTSAEIVDLLEDTMKEAVEITEIPAANEKQCGQAKLHDLEGAKRLMRFWLSQDKEELLKVFG”: the “soluble on expression in E. coli” value is “soluble”. For “MPTLRPESPEEVQEAVRAYPRLRAQGGGTKPALSTPKEGEVLLDLSRLRGLLAYEPEEFVFTAFAGTPIAEVEEALRAHGQYLPFDPPLAGKGATLGGTVAAGLSGPLRHRYGGLRDFLLGVRFVDGEGKVVRGGGKVVKNAAGFPFHRLMVGALGAFGVMVELSFKVFPRPRTTRTLRVRREGLEEALADLERLRLLPLDLLALDFIPPATLELRLGGFERSVEARLKRLQDLLGEGEVLAEDEAHWEAVRDLGFLEGSPVWVKVPAKPHLIPRLEALPLGPRRYLDGGEVLYAGTTEEGLKALREAGLPHLVLRGAEAPLFPEPQGAFFAGVKKALDPKGRFPLG” the value was “soluble”.

As for “MPTVQTIYSLEKAPEATKDKEPLVVYATSVDWKWVFSYPEQDIETVNYLNIPVDRPILCKISSADSMASLWIPQLGGQKYAMAGMLMDQYLQADKVGTYEGRNANFTGEHFADQEFDVNAVTEKDFNSWVKKTQNEAPKLTKEKYDELMLPENVDELTFSSTHLKYVDHGQDAEYAMEARKRLGYQAVSPHCKTDPFENVKKNEFKKSDDTEE”, the “soluble on expression in E. coli” value was “not soluble”. Regarding “MPTYKLTYFDGRGLAEPARMLFHLGGVPFEDSRIPVDMKTGLIMNPELADVKKKAPFGKYPVLKIDDIEIAQSAAINRYLARQFGFAGKNPIEEAQADSYIDQCQEYNTSFRACMYATLQGKPEEEVQKIREEVYIPAQNKFYEIFSDILNRNKSGFLVGDSLTWADLVIADHLYSLDTMGMLTHEDAWRCETLKKFQEKIYEHPLLKGYIASRPKGAF”, the “soluble on expression in E. coli” value is given as “not soluble”.

For “MPVDQSRQYLRIRDQLAADIAQGVLQVKLPSERELAERFLCTRITLREALQQLETEGLVYRENRRGWFVAPPRIRYNPTRTTGFMEYVSAQGRQPRTETLHAERRAAGAWLAKRMGLEDSAPVYFLQRRRWVDERPVLIELIALDAGWCPGLLDHDLDTSLMSLLRERFGLQPTRCQLAMHPTALNAAQAEPLQLAPGSPALYLERLSYAEGQRVVEFDQEFWRPDALEIVLDAAYPGA”, the “soluble on expression in E. coli” value was “not soluble”. The entry for “MPVFHTRTIESILEPVAQQISHLVIMHEEGEVDGKAIPDLTAPVAAVQAAVSNLVRVGKETVQTTEDQILKRDMPPAFIKVENACTKLVQAAQMLQSDPYSVPARDYLIDGSRGILSGTSDLLLTFDEAEVRKIIRVCKGILEYLTVAEVVETMEDLVTYTKNLGPGMTKMAKMIDERQQELTHQEHRVMLVNSMNTVKELLPVLISAMKIFVTTKNSKNQGIEEALKNRNFTVEKMSAEINEIIRVLQLTSWDEDAWASKDTEAMKRALASIDSKLNQAKGWLRDPSASPGDAGEQAIRQILDEAGKVGELCAGKERREILGTCKMLGQMTDQVADLRARGQGSSPVAMQKAQQVSQGLDVLTAKVENAARKLEAMTNSKQSIAKKIDAAQNWLADPNGGPEGEEQIRGALAEARKIAELCDDPKERDDILRSLGEISALTSKLADLRRQGKGDSPEARALAKQVATALQNLQTKTNRAVANSRPAKAAVHLEGKIEQAQRWIDNPTVDDRGVGQAAIRGLVAEGHRLANVMMGPYRQDLLAKCDRVDQLTAQLADLAARGEGESPQARALASQLQDSLKDLKARMQEAMTQEVSDVFSDTTTPIKLLAVAATAPPDAPNREEVFDERAANFENHSGKLGATAEKAAAVGTANKSTVEGIQASVKTARELTPQVVSAARILLRNPGNQAAYEHFETMKNQWIDNVEKMTGLVDEAIDTKSLLDASEEAIKKDLDKCKVAMANIQPQMLVAGATSIARRANRILLVAKREVENSEDPKFREAVKAASDELSKTISPMVMDAKAVAGNISDPGLQKSFLDSGYRILGAVAKVREAFQPQEPDFPPPPPDLEQLRLTDELAPPKPPLPEGEVPPPRPPPPEEKDEEFPEQKAGEVINQPMMMAARQLHDEARKWSSKGNDIIAAAKRMALLMAEMSRLVRGGSGTKRALIQCAKDIAKASDEVTRLAKEVAKQCTDKRIRTNLLQVCERIPTISTQLKILSTVKATMLGRTNISDEESEQATEMLVHNAQNLMQSVKETVREAEAASIKIRTDAGFTLRWVRKTPWYQ” is “soluble”. The entry for “MPVILNFSSERVLSESELEALRHVGRVSQSEQLVVRGRTMRLHHISFMDSFSVEPVSGGLLDRLSARGHRLLAENLEIQLNRGHTFLQAFRLYMEQSRATPCTRQNVSSAIQNKINSHAFTVSHQDFSCHEQHLNCPITLCIPETGVFVRNAKNSEICSLYDHNALTELIRRNAPHPLSREPFVPEMIVSKDECHFNLIEQYFCILATQNICTRI” is “not soluble”; for “MPVMSLIEQYEAAIYRGEIDSDPEQREILEHMQRLAEDLQKKSDSWFPWRKKHPIKGLYIYGPVGVGKTYLVDLFYQHIDEEKKARFHFHHFMQQIDAQLRRLQGKKNPLQYIAKEMAKSIRLLCFDEFLVHDVAYAMILAELLQALHHYGVVLVVSSNTRPDELYLNGVHRERFIPAIEIIKKNCEVLNLNQKRDYRLGRQPLLEAYLYPLNEQTQEAMEKQFALITREEDCKGFITVQNRDIPYIKYGTRSIWFAFDVICNFPRSQLDYLEIADRFDNVFLSDVYQLTESHTAQAIMFIHFIDVMYDRGIKLIISADVPAEELYVKGEMKETFKRTLSRLIEMQSVDYLSRHPRRLVKEMLLEHHHHHH” it is “not soluble”. The entry for “MPVSSRRCGMITRREAERLCKSFLGDNTPPRLPDDFAFNVQHKCAWGCRGSFLPSRYNSSRAKCIKCSYCGMFFSPNKFIFHSHRITTNDRYVQPDAANFNSWRRHMSLSGNDYDEKIIHAWEDVKAMFNGGTRKRLVGSSINPRSPGSPTQSTAVSSGVGSSSCGSPTSFERDTNEVDGKSGSSLPQRSQIDSQYNYGTVAAAAAVVGVTAVAAATELCSGLHVAAEGPTLSAALRKKNPLEHHHHHH” is “not soluble”; for “MPVVYKRILLKLSGEALMGDGHYGIDRAVVEHIVVEVAGVLQLGVEVAIVVGGGNIFRGMKSAGDGMDRVTADYMGMLATTMNALALHDAMRRNGVVSRVQSALRIDQVVEPYVRGKALRYLDERKVVVFAAGTGNPFFTTDTAAALRGMEMNANIVLKATKVDGIYTSDPLKNKDAQRFQSLTFDEAISKNLQVMDATALTLCRDQKLPINVFSIFKTGALKRVIMGEDEGTSVFV” it is “not soluble”.

Source of the values: the DeepSol protein solubility set.
